Measurements as given in patent publication US11186651B2, “Monoclonal antibody for the detection of the antiretroviral drug emtricitabine (FTC, 2′,3′-dideoxy-5-fluoro-3′-thiacytidine)” (THE UNITED STATES OF AMERICA, AS REPRESENTED BY THE …, priority 2018, dated 2021).

B1: 5D2: mouse IgG2b kappa monoclonal antibody that specifically binds FTC; heavy chain SEQ ID NO: 1, light chain SEQ ID NO: 2 (antibody, listed as Mus musculus)
heavy: QVQLQQPGAELVKPGASVKVSCKASGYTFTSYWMHWVKQRPGQGLEWIGRIHLSDSDTNYNQNFKDKATLTVDKSSRTAHMHLSSLTSADSAVYYCAMGGTFQSNYDTYWGQGTLVTVSAAKTTPPSVYPLAPGCGDTTGSSVTLGCLVKGYFPESVTVTWNSGSLSSSVHTFPALLQSGLYTMSSSVTVPSSTWPSQTVTCSVAHPASSTTVDKKLEPSGPISTINPCPPCKECHKCPAPNLEGGPSVFIFPPNIKDVLMISLTPKVTCVVVDVSEDDPDVRISWFVNNVEVHTAQTQTHREDYNSTIRVVSALPIQHQDWMSGKEFKCKVNNKDLPSPIERTISKIKGLVRAPQVYILPPPAEQLSRKDVSLTCLVVGFNPGDISVEWTSNGHTEENYKDTAPVLDSDGSYFIYSKLDIKTSKWEKTDSFSCNVRHEGLKNYYLKKTISRSPGK
light: DIQMTQSPASLSASVGETVTITCRASGNIHNYLAWYQQKQGKSPQLLVYNAKTLTDGVPSRFSGSGSGTQYSLKINSLQPEDFGNYYCQHFLYTPYTFGGGTKLEMRRADAAPTVSIFPPSSEQLTSGGASVVCFLNNFYPKDINVKWKIDGSERQNGVLNSWTDQDSKDSTYSMSSTLTLTKDEYERHNSYTCEATHKTSTSPIVKSFNRNEC

What was measured:
[1] = cited from earlier work
[2] = Cross-reactivity test of monoclonal antibody 5D2: FTC; assay type: binding
Experimental: (§1) The monoclonal antibody 5D2 was tested for cross-reactivity. 5D2 was determined to be specific for FTC, and to not bind to the following compounds: […]

[3] = Cross-reactivity test of monoclonal antibody 5D2: related compounds; assay type: binding; settings: Lamivudine (3TC), FTC-Triphosphate, FTC-Diphosphate, Cytidine, Deoxycytidine, Deoxyuridine, Guanosine, Deoxyguanosine, Deoxyadenosine, Adenosine, Thymidine, Uridine, 5-Methyluridine
Experimental: as §1

[4] = tested on: carrier proteins (LPH, BSA); assay: FTC screening assay: EIA on plates coated with carrier proteins; assay type: binding; settings: plates coated at 5 ug/ml
Experimental: (§2) An assay was developed to screen the Mabs for reactivity to the FTC conjugates. Microtiter plates were coated with the following reagents: FTC-peptide-dextran, FTC-peptide, FTC-peptide-LPH, FTC-peptide-BSA, FTC heptanoic acid, peptide only, peptide-LPH, peptide-BSA, BSA, LPH, and normal mouse serum (NMS). All compounds were diluted into sodium bicarbonate buffer, pH 9.6, to a concentration of 5 ug/ml; NMS was diluted 1:15. One hundred microliters of each solution was added to a column of the microtiter plate such that each row of the plate allowed the testing of a single clonal supernatant against all of the compounds in a single run. Plates were incubated at 4° C. overnight and then washed 3× with phosphate-buffered saline (PBS) containing 0.05% Tween 20 (PBS-T). Plates were blocked with PBS containing 0.5% nonfat dry milk for 1 hour at 37° C., washed 3×, and dried at 37° C. for 30 minutes. […]
(§3) Clonal supernatants (100 ul) were added to the appropriate wells and incubated at 37° C. for 1 hr. […] Absorbance was measured at 450 nm with a 630 nm reference.
(§4) Persistently reactive clones were further tested using FTC-peptide coated plates. […] Antibodies that yielded a reduction in absorbance versus the sample containing no FTC were selected for optimization in a FTC detection assay.

[5] = FTC screening assay: EIA on FTC-peptide coated plates with competition by free FTC; assay type: binding; settings: supernatant incubated with free FTC
Experimental: as §2, §3, §4

[6] = Competitive indirect EIA, reactivity of 5D2 to naturally occurring structural analogs; assay type: binding; settings: cytidine, cysotine, deoxycytidine, adenine, adenosine, deoxyadenosine, guanine, guanosine, deoxyguanosine, thymine, 5-methyluridine, thymidine, uracil, uridine, deoxyuridine; 12 to 1,000 ug/ml
Source text: Because FTC is an analog of cytidine, a competitive indirect EIA was used to evaluate the reactivity of 5D2 to naturally occurring structural analogs consisting of nitrogenous nucleic acid bases, ribonucleosides, and deoxyribonucleosides, including cytidine, cysotine, deoxycytidine, adenine, adenosine, deoxyadenosine, guanine, guanosine, deoxyguanosine, thymine, 5-methyluridine, thymidine, uracil, uridine, and deoxyuridine. For the competitive assay, the concentrations of these analogs ranged from 12 to 1,000 ug/ml which is similar to the range of FTC found in urine. Reactivity was not detected to all of these naturally occurring analogs using this EIA.

Molecule	concentration found in serum or plasma ([1]; serum or plasma)	concentration excreted unchanged in urine ([1]; urine)	specificity for FTC [2]	binding to related compounds (cross-reactivity) [3]	reactivity with the carrier proteins [4]	reactivity with FTC (reduction in absorbance versus sample containing no FTC) [5]	reactivity to naturally occurring analogs [6]
Nc1nc(=O)n([C@@H]2CS[C@H](CO)O2)cc1F [FTC]	1 to 300 ng/mL	1000 to 500000 ng/mL					
B1			specific	not bind	did not react	competitively reactive	not detected
